First the molecules themselves.
B1: H240-Kn198/H240-Hl068/L73-k0 (antibody)
chain 1: QDQLVQSGAEVKKPGASVKVSCKASGFNIKDTYIQWVRQAPGQGLEWMGRIDPLRKQTKYREKFEGRVTITADTSTNTAYMELSSLRSEDTAVYYCVRSGREFDYWGQGTLVTVSSASTKGPSVFPLAPSSKSTSGGTAALGCLVKDYFPEPVTVSWNSGALTSGVHTFPAVLQSSGLYSLSSVVTVPSSSLGTQTYICNVNHKPSNTKVDKKVEPKSCDKTHTCPPCPAPELQWGPMVFLFPPKPKDTLMISRTPEVTCVVVDVSDEEPEVKFNWYVDGVEVHNAKTKPREEQYNATYRVVSVLTVLHQDWLNGKEYKCKVSNKALPAPIEKTISKAKGQPREPQVCTLPPSRDELTKNQVSLWCLVKGFYPSDIAVEWESNGQPENNYKTTPPVLDSDGSFFLYSKLTVDKSRWQQGNVFSCSVMHEALHNHYTQKSLSLSP
chain 2: QDQLVQSGAEVKKPGASVKVSCKASGFNIKDTYIQWVRQAPGQGLEWMGRIDPLRKQTKYREKFEGRVTITADTSTNTAYMELSSLRSEDTAVYYCVRSGREFDYWGQGTLVTVSSASTKGPSVFPLAPSSKSTSGGTAALGCLVKDYFPEPVTVSWNSGALTSGVHTFPAVLQSSGLYSLSSVVTVPSSSLGTQTYICNVNHKPSNTKVDKKVEPKSCDKTHTCPPCPAPELLGGPSVFLFPPKPKDTLMISRTPEVTCVVVDVSHEEPEVKFNWYVDGVEVHNAKTKPREEQYNSTYRVVSVLTVLHQDWLNGKEYKCKVSNDALPKPIEETISKAKGQPREPQVYTLPPSRCELTKNQVSLSCAVKGFYPSDIAVEWESNGQPENNYKTTPPVLDSDGSFFLVSKLTVDKSRWQQGNVFSCSVMHEALHNHYTQKSLSLSP
chain 3: DIQMTQSPSSLSASVGDRVTITCRASQDIHKYIAWYQQKPGQAPRLLIQYTSTLQPGVPSRFSGSGSGTDYTFTISSLQPEDIATYYCLQYEQLRTFGGGTKVEIKRTVAAPSVFIFPPSDEQLKSGTASVVCLLNNFYPREAKVQWKVDNALQSGNSQESVTEQDSKDSTYSLSSTLTLSKADYEKHKVYACEVTHQGLSSPVTKSFNRGEC
B2: H240-Kn230/H240-Hl068/L73-k0 (antibody)
chain 1: B1 chain 1 with L233V, Q234Y, M238I, E269D, A326D
chain 2: B1 chain 2
chain 3: B1 chain 3
B3: H240-Kn228/H240-Hl210/L73-k0 (antibody)
chain 1: B1 chain 1 with L233D, M238I
chain 2: B1 chain 2 with K329A
chain 3: B1 chain 3
B4: H240-Kn233/H240-Hl068/L73-k0 (antibody)
chain 1: B1 chain 1 with L233E, Q234Y, M238I, E269D, A326D
chain 2: B1 chain 2
chain 3: B1 chain 3
B5: H240-Kn231/H240-Hl068/L73-k0 (antibody)
chain 1: B1 chain 1 with L233I, Q234Y, M238I, E269D, A326D
chain 2: B1 chain 2
chain 3: B1 chain 3
B6: H240-Kn226/H240-Hl214/L73-k0 (antibody)
chain 1: B1 chain 1 with L233F, M238I
chain 2: B1 chain 2 with K329F
chain 3: B1 chain 3
B7: H240-Kn202/H240-Hl068/L73-k0 (antibody)
chain 1: B1 chain 1 with L233E
chain 2: B1 chain 2
chain 3: B1 chain 3
B8: H240-Kn202/H240-Hl210/L73-k0 (antibody)
chain 1: B1 chain 1 with L233E
chain 2: B1 chain 2 with K329A
chain 3: B1 chain 3
B9: H240-Kn201/H240-Hl210/L73-k0 (antibody)
chain 1: B1 chain 1 with L233F
chain 2: B1 chain 2 with K329A
chain 3: B1 chain 3
B10: H240-Kn226/H240-Hl210/L73-k0 (antibody)
chain 1: B1 chain 1 with L233F, M238I
chain 2: B1 chain 2 with K329A
chain 3: B1 chain 3
B11: H240-Kn198/H240-Hl210/L73-k0 (antibody)
chain 1: B1 chain 1
chain 2: B1 chain 2 with K329A
chain 3: B1 chain 3
B12: H240-Kn201/H240-Hl214/L73-k0 (antibody)
chain 1: B1 chain 1 with L233F
chain 2: B1 chain 2 with K329F
chain 3: B1 chain 3
B13: H240-Kn203/H240-Hl210/L73-k0 (antibody)
chain 1: B1 chain 1 with L233F, Q234Y, E269D, A326D
chain 2: B1 chain 2 with K329A
chain 3: B1 chain 3
B14: H240-Kn235/H240-Hl068/L73-k0 (antibody)
chain 1: B1 chain 1 with L233F, Q234Y, M238I, E269D, A326D
chain 2: B1 chain 2
chain 3: B1 chain 3
B15: H240-Kn228/H240-Hl214/L73-k0 (antibody)
chain 1: B1 chain 1 with L233D, M238I
chain 2: B1 chain 2 with K329F
chain 3: B1 chain 3

Substitutions are numbered along the chain they refer to.

One experiment concerns the target T1, FcgRIIa R (human, UniProt P12318).
T1 chain: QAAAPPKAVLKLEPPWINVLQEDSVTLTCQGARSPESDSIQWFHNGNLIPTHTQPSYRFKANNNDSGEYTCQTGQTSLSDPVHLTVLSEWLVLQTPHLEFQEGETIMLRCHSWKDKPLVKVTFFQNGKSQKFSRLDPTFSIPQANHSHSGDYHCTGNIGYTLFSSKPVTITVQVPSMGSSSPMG
Nature of the experiment: SPR. A general note: In SPR one partner is held on a chip, and binding of the other changes the refractive index at the surface.
B1 yielded a Kd of 240 nM.
As for B2, binding was put at a Kd of 9.6 nM.
B3 gave a Kd of 200 nM. Compared with the last molecule, the Kd is about 21-fold higher.
B4 returned a Kd of 21 nM.
Molecule B5 displayed a Kd of 8.9 nM. Compared with the last molecule, the Kd is about 2.4-fold lower.
On the same count and under the same terms, as for B6, the figure is 360 nM.
Turning to B7, the affinity, expressed as Kd, was 200 nM.
For B8, binding was characterised by a dissociation constant (Kd) of 320 nM.
In turn, B9 gave a Kd of 430 nM.
Consider B10, for which the Kd was determined as 310 nM.
B11 returned a Kd of 480 nM.
The molecule B12 yielded a Kd of 560 nM.
Turning to B13, the Kd turned out to be 56 nM.
On the same count and under the same terms, for B14 the value was 23 nM; for B15, 320 nM.

Another experiment deals with T2, FcgRIa (human, UniProt P12314).
T2 chain: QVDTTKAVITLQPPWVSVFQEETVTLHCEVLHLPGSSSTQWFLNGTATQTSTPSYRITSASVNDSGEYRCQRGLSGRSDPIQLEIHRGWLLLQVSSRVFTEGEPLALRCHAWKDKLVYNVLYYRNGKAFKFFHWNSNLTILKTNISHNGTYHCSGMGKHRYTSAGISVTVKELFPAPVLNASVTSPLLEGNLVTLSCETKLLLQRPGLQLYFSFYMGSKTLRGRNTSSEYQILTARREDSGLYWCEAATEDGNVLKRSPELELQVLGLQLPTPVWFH
Nature of the experiment: SPR.
Consider B1, for which binding was characterised by a dissociation constant (Kd) of 0.24 nM. That is a sub-nanomolar value.
Regarding B2, the dissociation constant Kd is 0.18 nM. The Kd values of the last two molecules are within 1.5-fold of each other.
Molecule B3 returned a Kd of 0.16 nM. The Kd values of the last two molecules are within 1.5-fold of each other.
As for B4, binding was characterised by a dissociation constant (Kd) of 0.18 nM. The Kd values of the last two molecules are within 1.5-fold of each other.
Same read-out and setting: for B5 the value was 0.18 nM; for B6, 0.089 nM; for B7, 0.4 nM.
The molecule B8 returned a Kd of 0.17 nM.
As for B9, the affinity, expressed as Kd, was 0.069 nM. This Kd is about 2.5-fold lower than that of the molecule before.
Molecule B10 displayed a Kd of 0.11 nM.
Still for that read-out and setting: for B11 the value was 0.047 nM.
On the same count and under the same terms, as for B12, the figure is 0.091 nM; as for B13, 0.16 nM.
The same measure, in the same setting: as for B14, the figure is 0.15 nM; as for B15, 0.12 nM.

The target of another experiment is FcgRIIIa V (human, UniProt P08637). Nature of the experiment: SPR.
FcgRIIIa V, sequence (P08637 17-208 F176V): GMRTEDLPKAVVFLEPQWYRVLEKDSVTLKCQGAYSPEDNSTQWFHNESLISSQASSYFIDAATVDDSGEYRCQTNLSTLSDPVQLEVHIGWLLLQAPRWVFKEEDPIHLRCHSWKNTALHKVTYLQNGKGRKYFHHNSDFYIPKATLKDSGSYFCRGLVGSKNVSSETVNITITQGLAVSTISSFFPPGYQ
Molecule B1 came in with an equilibrium dissociation constant (Kd) of 0.85 nM.
B2: the affinity, expressed as Kd, was 0.93 nM.
Same read-out and setting: as for B3, the figure is 0.81 nM; as for B4, 0.75 nM; as for B5, 0.73 nM.
Still for that read-out and setting: as for B6, the figure is 0.77 nM; as for B7, 0.66 nM; as for B8, 0.53 nM.
Still for that read-out and setting: for B9 the value was 0.49 nM; for B10, 0.85 nM; for B11, 1 nM.
Molecule B12 gave a Kd of 1.4 nM.
On to B13, for which binding was characterised by a dissociation constant (Kd) of 0.45 nM.
In turn, B14 gave a Kd of 0.87 nM.
Molecule B15 had a dissociation constant Kd of 0.77 nM.

A further experiment addresses T3, FcgRIIa H (human, UniProt P12318).
T3 chain: T1 chain with R134H
Nature of the experiment: SPR.
As to B1, the Kd worked out at 49 nM.
On the same count and under the same terms, as for B2, the figure is 22 nM.
Molecule B3 registered a Kd of 190 nM.
Same read-out and setting: as for B4, the figure is 66 nM; as for B5, 16 nM; as for B6, 160 nM.
Same read-out and setting: as for B7, the figure is 120 nM.
As to B8, the affinity, expressed as Kd, was 230 nM.
B9: binding was put at a Kd of 110 nM.
Still for that read-out and setting: as for B10, the figure is 120 nM.
B11 showed a Kd of 120 nM.
B12 returned a Kd of 150 nM.
Molecule B13 registered a dissociation constant (Kd) of 93 nM. Against the preceding molecule, the Kd is about 1.6-fold lower.
In turn, B14 returned a Kd of 37 nM.
Take B15: the Kd was 270 nM.

For a further experiment, the target named is T4, FcgRIIb (human, UniProt P31994).
T4 chain: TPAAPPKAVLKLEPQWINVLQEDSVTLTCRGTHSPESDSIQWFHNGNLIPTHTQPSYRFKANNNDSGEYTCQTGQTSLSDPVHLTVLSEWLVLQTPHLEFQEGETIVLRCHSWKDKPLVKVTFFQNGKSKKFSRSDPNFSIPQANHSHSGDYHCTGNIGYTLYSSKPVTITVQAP
Nature of the experiment: SPR.
The molecule B1 registered a Kd of 1600 nM.
B2 yielded a Kd of 150 nM.
In the case of B3, binding was characterised by a dissociation constant (Kd) of 1700 nM.
B4 came in with a Kd of 210 nM.
Still for that read-out and setting: as for B5, the figure is 120 nM.
In turn, B6 returned an equilibrium dissociation constant (Kd) of 3400 nM.
Molecule B7 came in with a Kd of 1400 nM. This Kd is about 2.4-fold lower than that of the molecule before.
As to B8, binding was put at a Kd of 2200 nM.
Consider B9, for which the affinity, expressed as Kd, was 7200 nM.
For the molecule B10, binding was characterised by a dissociation constant (Kd) of 3100 nM.
B11 came in with a Kd of 3100 nM. In other words, the single-digit micromolar range.
As to B12, binding was characterised by a dissociation constant (Kd) of 3700 nM.
Still for that read-out and setting: as for B13, the figure is 300 nM.
B14 showed a Kd of 220 nM.
As for B15, the Kd is 2300 nM.

For another experiment, the target named is FcgRIIIa F (human, UniProt P08637). Nature of the experiment: SPR.
FcgRIIIa F, sequence (P08637 17-208): as the sequence (P08637 17-208 F176V) above, with V160F counted along it
Take B1: binding was put at a Kd of 3.7 nM.
In turn, B2 showed a Kd of 2.6 nM.
On the same count and under the same terms, for B3 the value was 4.4 nM; for B4, 2.5 nM; for B5, 2.9 nM.
Same read-out and setting: for B6 the value was 1.9 nM.
Same read-out and setting: as for B7, the figure is 2.5 nM; as for B8, 3.3 nM; as for B9, 3.2 nM.
Regarding B10, binding was characterised by a dissociation constant (Kd) of 3.7 nM.
Molecule B11 gave a Kd of 4.9 nM.
For the molecule B12, binding was put at a Kd of 3.9 nM.
B13 returned a Kd of 3 nM.
For B14, the Kd was found to be 2.7 nM.
Molecule B15 returned a Kd of 1.9 nM.

As usually defined, the Kd is the constant that tells how readily two partners part at equilibrium. Lower therefore signals higher affinity.

The record behind these values is patent publication US10766960 (dated 2020).
